Measured values: IntAct's records for PubMed 20168298

B1: Polycystin-2 (Homo sapiens), Q13563 (parent)
chain: MVNSSRVQPQQPGDAKRPPAPRAPDPGRLMAGCAAVGASLAAPGGLCEQRGLEIEMQRIRQAAARDPPAGAAASPSPPLSSCSRQAWSRDNPGFEAEEEEEEVEGEEGGMVVEMDVEWRPGSRRSAASSAVSSVGARSRGLGGYHGAGHPSGRRRRREDQGPPCPSPVGGGDPLHRHLPLEGQPPRVAWAERLVRGLRGLWGTRLMEESSTNREKYLKSVLRELVTYLLFLIVLCILTYGMMSSNVYYYTRMMSQLFLDTPVSKTEKTNFKTLSSMEDFWKFTEGSLLDGLYWKMQPSNQTEADNRSFIFYENLLLGVPRIRQLRVRNGSCSIPQDLRDEIKECYDVYSVSSEDRAPFGPRNGTAWIYTSEKDLNGSSHWGIIATYSGAGYYLDLSRTREETAAQVASLKKNVWLDRGTRATFIDFSVYNANINLFCVVRLLVEFPATGGVIPSWQFQPLKLIRYVTTFDFFLAACEIIFCFFIFYYVVEEILEIRIHKLHYFRSFWNCLDVVIVVLSVVAIGINIYRTSNVEVLLQFLEDQNTFPNFEHLAYWQIQFNNIAAVTVFFVWIKLFKFINFNRTMSQLSTTMSRCAKDLFGFAIMFFIIFLAYAQLAYLVFGTQVDDFSTFQECIFTQFRIILGDINFAEIEEANRVLGPIYFTTFVFFMFFILLNMFLAIINDTYSEVKSDLAQQKAEMELSDLIRKGYHKALVKLKLKKNTVDDISESLRQGGGKLNFDELRQDLKGKGHTDAEIEAIFTKYDQDGDQELTEHEHQQMRDDLEKEREDLDLDHSSLPRPMSSRSFPRSLDDSEEDDDEDSGHSSRRRGSISSGVSYEEFQVLVRRVDRMEHSIGSIVSKIDAVIVKLEIMERAKLKRREVLGRLLDGVAEDERLGRDSEIHREQMERLVREELERWESDDAASQISHGLGTPVGLNGQPRPRSSRPSSSQSTEGMEGAGGNGSSNVHV

Variants of: B1
Details: with pkd1_human PKD1, P98161
pkd1_human PKD1, P98161, sequence (P98161 whole entry, looked up): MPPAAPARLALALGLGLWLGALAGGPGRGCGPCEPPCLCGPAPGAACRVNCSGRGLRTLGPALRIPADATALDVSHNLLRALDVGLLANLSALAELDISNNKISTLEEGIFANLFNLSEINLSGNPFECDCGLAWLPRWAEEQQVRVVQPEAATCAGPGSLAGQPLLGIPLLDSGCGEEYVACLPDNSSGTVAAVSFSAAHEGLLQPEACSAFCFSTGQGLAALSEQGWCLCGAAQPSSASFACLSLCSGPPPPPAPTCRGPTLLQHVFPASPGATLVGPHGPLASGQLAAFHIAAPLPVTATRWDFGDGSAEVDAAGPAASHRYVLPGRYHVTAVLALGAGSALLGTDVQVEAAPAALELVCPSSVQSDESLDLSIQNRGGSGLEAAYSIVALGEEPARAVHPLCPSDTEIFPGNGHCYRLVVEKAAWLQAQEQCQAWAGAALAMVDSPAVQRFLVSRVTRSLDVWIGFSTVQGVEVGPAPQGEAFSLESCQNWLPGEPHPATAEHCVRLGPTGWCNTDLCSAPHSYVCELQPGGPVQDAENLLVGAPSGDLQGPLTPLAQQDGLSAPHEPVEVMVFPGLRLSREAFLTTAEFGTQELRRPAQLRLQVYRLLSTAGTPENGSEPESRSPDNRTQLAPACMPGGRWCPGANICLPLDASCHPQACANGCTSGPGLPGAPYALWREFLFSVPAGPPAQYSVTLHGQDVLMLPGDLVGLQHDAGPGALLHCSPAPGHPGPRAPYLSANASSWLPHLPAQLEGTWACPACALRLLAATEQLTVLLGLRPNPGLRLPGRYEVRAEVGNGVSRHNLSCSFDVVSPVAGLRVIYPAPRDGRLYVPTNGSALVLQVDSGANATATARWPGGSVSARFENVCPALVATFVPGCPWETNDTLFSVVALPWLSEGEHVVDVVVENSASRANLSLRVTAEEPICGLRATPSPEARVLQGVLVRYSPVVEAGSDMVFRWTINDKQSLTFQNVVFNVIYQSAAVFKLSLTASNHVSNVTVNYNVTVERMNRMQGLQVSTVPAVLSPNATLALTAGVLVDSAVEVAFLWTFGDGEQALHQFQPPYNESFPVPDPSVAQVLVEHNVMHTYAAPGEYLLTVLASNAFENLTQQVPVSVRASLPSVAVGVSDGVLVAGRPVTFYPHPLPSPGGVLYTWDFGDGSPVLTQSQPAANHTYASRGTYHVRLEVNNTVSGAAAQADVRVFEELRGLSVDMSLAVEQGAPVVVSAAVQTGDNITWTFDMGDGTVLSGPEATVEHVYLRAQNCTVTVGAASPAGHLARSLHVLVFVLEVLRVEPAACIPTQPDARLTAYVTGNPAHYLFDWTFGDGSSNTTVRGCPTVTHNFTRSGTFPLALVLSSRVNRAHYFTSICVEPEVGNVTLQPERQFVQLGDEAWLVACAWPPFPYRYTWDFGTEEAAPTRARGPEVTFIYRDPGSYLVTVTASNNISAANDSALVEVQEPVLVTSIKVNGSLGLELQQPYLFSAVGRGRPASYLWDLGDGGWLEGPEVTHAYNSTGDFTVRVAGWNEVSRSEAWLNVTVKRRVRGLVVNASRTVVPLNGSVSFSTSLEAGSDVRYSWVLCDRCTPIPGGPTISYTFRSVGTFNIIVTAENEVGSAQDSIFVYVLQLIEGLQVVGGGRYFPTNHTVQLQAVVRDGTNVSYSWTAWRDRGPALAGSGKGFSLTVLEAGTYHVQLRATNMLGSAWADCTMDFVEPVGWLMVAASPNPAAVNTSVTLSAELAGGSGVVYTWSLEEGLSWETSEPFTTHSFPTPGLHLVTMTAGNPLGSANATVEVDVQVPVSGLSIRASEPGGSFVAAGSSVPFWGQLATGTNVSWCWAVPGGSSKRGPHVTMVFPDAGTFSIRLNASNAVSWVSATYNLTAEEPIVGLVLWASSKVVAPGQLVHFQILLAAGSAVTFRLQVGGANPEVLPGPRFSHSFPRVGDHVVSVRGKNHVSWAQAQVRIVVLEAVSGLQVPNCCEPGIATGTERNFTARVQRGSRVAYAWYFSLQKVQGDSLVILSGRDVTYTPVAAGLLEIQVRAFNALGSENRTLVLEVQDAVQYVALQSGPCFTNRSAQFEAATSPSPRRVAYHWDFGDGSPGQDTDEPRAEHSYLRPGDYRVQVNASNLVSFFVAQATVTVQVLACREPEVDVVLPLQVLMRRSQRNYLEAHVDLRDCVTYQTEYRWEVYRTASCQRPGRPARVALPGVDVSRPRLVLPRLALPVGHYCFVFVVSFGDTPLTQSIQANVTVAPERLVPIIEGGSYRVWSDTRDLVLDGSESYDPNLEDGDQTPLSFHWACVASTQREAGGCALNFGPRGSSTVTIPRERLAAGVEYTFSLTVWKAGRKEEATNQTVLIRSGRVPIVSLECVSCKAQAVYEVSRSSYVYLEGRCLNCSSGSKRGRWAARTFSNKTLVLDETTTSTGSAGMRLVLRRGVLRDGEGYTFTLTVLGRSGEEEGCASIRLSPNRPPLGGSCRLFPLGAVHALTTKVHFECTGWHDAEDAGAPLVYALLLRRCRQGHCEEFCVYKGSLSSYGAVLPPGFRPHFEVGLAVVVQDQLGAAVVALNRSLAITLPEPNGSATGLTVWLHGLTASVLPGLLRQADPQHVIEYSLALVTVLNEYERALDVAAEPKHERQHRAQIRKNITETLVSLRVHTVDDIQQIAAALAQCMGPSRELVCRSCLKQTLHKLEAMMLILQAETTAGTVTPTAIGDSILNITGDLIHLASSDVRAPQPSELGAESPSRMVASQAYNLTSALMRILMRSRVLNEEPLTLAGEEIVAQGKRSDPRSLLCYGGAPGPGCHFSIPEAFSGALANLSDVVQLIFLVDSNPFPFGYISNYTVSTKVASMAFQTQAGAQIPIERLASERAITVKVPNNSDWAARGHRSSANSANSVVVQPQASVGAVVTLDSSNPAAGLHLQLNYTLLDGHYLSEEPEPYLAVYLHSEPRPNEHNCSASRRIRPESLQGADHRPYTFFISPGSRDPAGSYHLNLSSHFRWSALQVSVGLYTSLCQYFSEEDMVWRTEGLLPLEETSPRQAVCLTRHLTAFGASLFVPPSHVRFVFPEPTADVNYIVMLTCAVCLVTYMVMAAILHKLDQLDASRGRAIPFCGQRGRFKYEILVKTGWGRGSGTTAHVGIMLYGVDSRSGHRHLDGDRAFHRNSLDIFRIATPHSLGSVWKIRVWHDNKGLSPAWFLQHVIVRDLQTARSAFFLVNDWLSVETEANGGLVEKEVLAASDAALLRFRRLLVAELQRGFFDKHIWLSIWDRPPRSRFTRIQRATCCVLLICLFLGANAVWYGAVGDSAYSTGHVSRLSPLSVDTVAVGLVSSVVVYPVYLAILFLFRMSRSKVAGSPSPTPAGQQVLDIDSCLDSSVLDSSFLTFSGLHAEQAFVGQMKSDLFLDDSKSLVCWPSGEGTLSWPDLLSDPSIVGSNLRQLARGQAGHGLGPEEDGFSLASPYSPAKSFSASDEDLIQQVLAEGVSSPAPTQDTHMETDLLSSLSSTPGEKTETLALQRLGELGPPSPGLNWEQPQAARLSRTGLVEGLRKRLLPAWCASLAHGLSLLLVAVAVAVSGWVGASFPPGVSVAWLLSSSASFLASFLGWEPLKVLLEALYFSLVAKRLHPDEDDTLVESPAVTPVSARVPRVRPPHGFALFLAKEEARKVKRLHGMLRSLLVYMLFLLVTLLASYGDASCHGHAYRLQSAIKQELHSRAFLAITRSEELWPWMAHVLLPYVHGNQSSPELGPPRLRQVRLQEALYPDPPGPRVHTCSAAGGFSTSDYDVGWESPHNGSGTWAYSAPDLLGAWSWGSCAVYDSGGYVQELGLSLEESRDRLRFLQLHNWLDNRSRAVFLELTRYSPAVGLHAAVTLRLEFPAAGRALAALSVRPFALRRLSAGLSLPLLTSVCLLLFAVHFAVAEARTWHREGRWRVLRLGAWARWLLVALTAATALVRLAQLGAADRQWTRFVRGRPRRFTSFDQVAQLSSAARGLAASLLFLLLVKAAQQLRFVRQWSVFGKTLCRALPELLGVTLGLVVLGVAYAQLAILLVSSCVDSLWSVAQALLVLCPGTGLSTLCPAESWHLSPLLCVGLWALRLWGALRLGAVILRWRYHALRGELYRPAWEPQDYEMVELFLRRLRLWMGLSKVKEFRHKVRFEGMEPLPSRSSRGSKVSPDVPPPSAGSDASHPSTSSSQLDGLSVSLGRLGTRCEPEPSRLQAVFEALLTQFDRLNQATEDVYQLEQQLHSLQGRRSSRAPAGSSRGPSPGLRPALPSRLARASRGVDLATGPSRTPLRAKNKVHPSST

Variant | effect of a mutation on the interaction
V846A | disrupting interaction
I853A | disrupting interaction

Now from value to variant:

effect of a mutation on the interaction | Variant
disrupting interaction | L867A
disrupting interaction | I860A
